Experimental data as given in US20170290886A1, “TREATMENT OF NEURODEVELOPMENTAL DISORDERS” (Academia Sinica, priority 2016, published 2017).

Target: T1, MeCP2 (Homo sapiens, UniProt P51608)
T1 construct: GST; purchased Prospec
Experiment: In vitro SUMOylation assay with recombinant proteins
Format: biochemical
Conditions: E1, E2, PIAS1 and MeCP2 proteins added; FIG. 1a
Protocol: In vitro SUMOylation assay was performed by using the SUMO link kit according to the manufacturer's instructions (Active Motif, Carlsbad, Calif.). Recombinant GST-tagged MeCP2 protein (Prospec, East Brunswick, N.J.), His-tagged PIAS1 protein purified from His-bind resin (Novagen, Wis.), and GST-tagged SENP1 protein (Enzo, Ann Arbor, Mich.) were used for assays at 30° C. for 3 h and then boiled in Laemmli sample buffer at 95° C. for 10 min. The in vitro SUMOylation product was subject to 8% SDS-PAGE followed by transferring onto the NC membrane. The membrane was immunoblotted with anti-His and anti-GST antibodies.

T1 sequence (P51608 whole entry, species assumed): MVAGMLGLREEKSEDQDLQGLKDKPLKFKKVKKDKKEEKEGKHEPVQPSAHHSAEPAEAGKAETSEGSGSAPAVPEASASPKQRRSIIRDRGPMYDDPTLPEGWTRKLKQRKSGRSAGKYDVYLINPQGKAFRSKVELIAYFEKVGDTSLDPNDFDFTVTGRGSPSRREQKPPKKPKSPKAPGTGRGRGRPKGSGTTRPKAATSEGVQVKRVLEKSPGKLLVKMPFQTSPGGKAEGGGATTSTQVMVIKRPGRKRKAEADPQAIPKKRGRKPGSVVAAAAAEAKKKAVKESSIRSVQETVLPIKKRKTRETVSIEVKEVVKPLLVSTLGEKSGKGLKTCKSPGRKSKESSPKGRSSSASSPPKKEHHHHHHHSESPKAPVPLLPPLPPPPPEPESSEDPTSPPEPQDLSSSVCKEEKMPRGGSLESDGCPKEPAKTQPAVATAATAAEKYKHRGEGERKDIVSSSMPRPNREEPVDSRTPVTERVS

B1: SENP1: an enzyme that removes the sumo molecule from sumo-conjugated protein (protein, UniProt Q9P0U3 1-644, looked up)
Sentrin-specific protease 1: MDDIADRMRMDAGEVTLVNHNSVFKTHLLPQTGFPEDQLSLSDQQILSSRQGHLDRSFTCSTRSAAYNPSYYSDNPSSDSFLGSGDLRTFGQSANGQWRNSTPSSSSSLQKSRNSRSLYLETRKTSSGLSNSFAGKSNHHCHVSAYEKSFPIKPVPSPSWSGSCRRSLLSPKKTQRRHVSTAEETVQEEEREIYRQLLQMVTGKQFTIAKPTTHFPLHLSRCLSSSKNTLKDSLFKNGNSCASQIIGSDTSSSGSASILTNQEQLSHSVYSLSSYTPDVAFGSKDSGTLHHPHHHHSVPHQPDNLAASNTQSEGSDSVILLKVKDSQTPTPSSTFFQAELWIKELTSVYDSRARERLRQIEEQKALALQLQNQRLQEREHSVHDSVELHLRVPLEKEIPVTVVQETQKKGHKLTDSEDEFPEITEEMEKEIKNVFRNGNQDEVLSEAFRLTITRKDIQTLNHLNWLNDEIINFYMNMLMERSKEKGLPSVHAFNTFFFTKLKTAGYQAVKRWTKKVDVFSVDILLVPIHLGVHWCLAVVDFRKKNITYYDSMGGINNEACRILLQYLKQESIDKKRKEFDTNGWQLFSKKSQEIPQQMNGSDCGMFACKYADCITKDRPINFTQQHMPYFRKRMVWEILHRKLL
modifications: GST tag
notes: an enzyme that removes the sumo molecule from sumo-conjugated protein
  MeCP2 SUMOylation: blocked
